Source: publication PMC4513076

Key:
[1] = biological target: T1, IolR (Salmonella enterica) (UniProt A0A0H3NJ61); assay: EMSA
T1 sequence: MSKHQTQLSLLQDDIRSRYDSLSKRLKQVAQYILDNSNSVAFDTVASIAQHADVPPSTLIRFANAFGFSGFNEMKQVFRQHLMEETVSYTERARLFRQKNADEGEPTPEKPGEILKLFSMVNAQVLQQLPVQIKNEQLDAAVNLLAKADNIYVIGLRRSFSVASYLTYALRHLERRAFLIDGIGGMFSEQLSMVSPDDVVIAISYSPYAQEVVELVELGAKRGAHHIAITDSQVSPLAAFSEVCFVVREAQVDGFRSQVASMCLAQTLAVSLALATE

[2] = biological target: IolR, myo-inositol catabolism repressor (RpiR-like transcriptional repressor) of Salmonella enterica (Salmonella enterica serovar Typhimurium LT2); assay: SEC
[3] = biological target: IolR (Salmonella enterica, UniProt A0A0H3NJ61 1-277); assay: EMSA

Molecule	binding [1]	also measured
CATGCATGATACTCTAATAGAACGAAAATTTCGTAAATAACCATATTAGCACAAATGAACTGAACATACAGTTAACAACATTCAAATTGCGCTGTGGTTACCTTCAGTACAGAATTTGCTGGCGGGCTGGGTTCTGAGCAATCTGAATCTGACCGCATAAATGCGACAGGATCAG (double strand) [PiolR (175 nt)]	binds	–
CATACCGGTTTCCCTTACACAGAAGTGACCGGATAATTTTAAACGCTTTCGCTATTTTATGCTGTGACGTTTCCCGGATGTTGCGTTTTTCCTGCCAGATAGCGCGTTTTGAAACGGGTGAAATGTTCACCTAAACTGGTTGCCGCCTCG (double strand) [Ppat (150 nt)]	binds	–
IolR, myo-inositol catabolism repressor (RpiR-like transcriptional repressor) of Salmonella enterica (natural protein)	–	stoichiometry N [2]: 4
Ppat45 (dsDNA) DNA 1: CAACCAGTTTAGGTGAACATTTCACCCGTTTCAAAACGCGCTATCT DNA 2: AGATAGCGCGTTTTGAAACGGGTGAAATGTTCACCTAAACTGGTTG	–	binding result [3]: binds
